Results: US20240182590A1, “METHOD OF TREATMENT OF PATIENTS HAVING REDUCED SENSITIVITY TO A BCL-2 INHIBITOR” (argenx BV, priority 2020, published 2024)
Entries after “also recorded” stand apart in the source; their conditions may differ.

T1: interaction of CD70 with its receptor CD27 (Homo sapiens, UniProt P32970)
T1 sequence (P32970 1-193): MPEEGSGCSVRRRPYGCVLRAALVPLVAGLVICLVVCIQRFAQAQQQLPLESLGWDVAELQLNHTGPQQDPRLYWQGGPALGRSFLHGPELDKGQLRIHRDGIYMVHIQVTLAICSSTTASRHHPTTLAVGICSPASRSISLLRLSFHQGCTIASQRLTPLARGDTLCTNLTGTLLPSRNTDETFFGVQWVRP

B1: cusatuzumab: monoclonal IgG1 anti-CD70 antibody, afucosylated for enhanced ADCC; CDR, VH and VL sequences in Table 1 (antibody, V domains shown)
VH: EVQLVESGGGLVQPGGSLRLSCAASGFTFSVYYMNWVRQAPGKGLEWVSDINNEGGTTYYADSVKGRFTISRDNSKNSLYLQMNSLRAEDTAVYYCARDAGYSNHVPIFDSWGQGTLVTVSS
VL: QAVVTQEPSLTVSPGGTVTLTCGLKSGSVTSDNFPTWYQQTPGQAPRLLIYNTNTRHSGVPDRFSGSILGNKAALTITGAQADDEAEYFCALFISNPSVEFGGGTQLTVLG

Assays:
[1] = cited from earlier work
[2] = tested on: ROS-low LSCs from mono-AML and prim-AML; conditions: versus ROS-low LSCs from primitive AML (Pei et al. 2020); cited from earlier work
[3] = tested on: total mononuclear cell fraction of M4/5 samples; conditions: M4/5 AML samples, ex vivo; cited from earlier work
[4] = tested on: CD70 positive monocytic AML cells; assay: Cusatuzumab-mediated NK-dependent ADCC on primary AML bone marrow samples; format: cell-based, human; conditions: 10 μg/ml, 24 hours
Source text: FIG. 7B is a bar graph showing the effect on monocytic and primitive AML cells. following administration of cusatuzumab, 41D12 FcDead antibody and a vehicle control. […] One-way ANOVA test was used to determine significance. *p<0.05.
FIG. 7C is a bar graph showing the effect on monocytic AML cells following administration of cusatuzumab, 41D12 FcDead antibody and a vehicle control. […] One-way ANOVA test was used to determine significance. ***p<0.001.
Cusatuzumab is an afucosylated anti-human CD70 antibody with enhanced properties to mediate NK-dependent antibody-dependent cellular cytotoxicity (ADCC) (Silence et al. 2014). VEN+AZA resistant CD70 positive monocytic AML (CD45^bright/SSC^high/CD38^+/CD34^−/CD33^+/CD11b^+/CD70^+) and mixed phenotype samples containing CD70 positive monocytic cells (CD45^bright/SSC^high/CD38^+/CD34^−/CD33^+/CD11b^+/CD70^+) and CD70 negative VEN+AZA sensitive primitive cells (CD45^medium/SSC^low/CD34^−/CD33^+/CD11b^+/CD70^− containing both CD38^+ and CD38^− populations) (FIG. 7A) were tested for sensitivity to cusatuzumab-mediated ADCC. Both types of primary bone marrow samples were treated with cusatuzumab at 10 μg/ml concentration and co-incubated with human NK cells isolated by a negative selection from healthy donor PBMCs. NK cells were added in 1:5 and 1:15 target to effector cells (T:E) ratio to monocytic AML and mixed phenotype bone marrow samples, respectively. Cells were co-cultured for 24 hours at 37° C. in cell culture incubator. Flow cytometry analysis was performed in order to measure number of primitive and monocytic AML cells and estimate the level of ADCC for particular sample. […] This supports the specificity of cusatuzumab-mediated effects in the targeting of CD70-positive VEN+AZA resistant monocytic AML cells.

[5] = tested on: VEN+AZA resistant monocytic AML cells; assay: Patient-derived xenograft mouse model, monocytic AML cells in mouse bone marrow; format: in vivo, NSGS mice; conditions: 3 doses every 3 days, cusatuzumab 10 mg/kg, Ven 100 mg/kg + Aza 3 mg/kg
Procedure: FIG. 10 is a bar graph showing the efficacy of anti-CD70 antibody treatment in the presence of NK cells in a patient-derived xenograft mouse model. NSGS mice were engrafted with VEN+AZA resistant monocytic AML bone marrow sample. When engraftment level in bone marrow reached around 25% of leukemic cells, animals were treated 3 times every 3 days with cusatuzumab or VEN+AZA with or without a single infusion of 1.5×10^6 NK cells. After 9 days animals were sacrificed, bone marrow from femur isolated and the number of malignant monocytic cells in bone marrow was determined. […] Mann-Whitney test was used to determine significance. *p<0.05, **p<0.01, ***p<0.001, ****p<0.0001.
Patient samples injected in NSGS mice engraft in mouse bone marrow. The efficiency of anti-leukemic compounds can be measured stringently using therapeutic approaches after full engraftment of patient-derived samples and by determination of the reduction of malignant cells in mouse bone marrow. 2×10^6 cells from bone marrow from VEN+AZA resistant monocytic AML per NSGS mouse were engrafted for 42 days. One cohort of animals was treated with vehicle, combination of 100 mg/kg Ven and 3 mg/kg Aza or 10 mg/kg cusatuzumab. […] One day after the third dose animals were sacrificed and bone marrow from femur was isolated and samples were analysed by flow cytometry to determine the number of monocytic AML cells. […]

[6] = tested on: leukemic stem cells (LSCs) in AML patients; conditions: in combination with azacitidine; see WO2018/229303; cited from earlier work
[7] = biological target: T1, interaction of CD70 with its receptor CD27; conditions: Silence et al. (2014); cited from earlier work
[8] = tested on: CD70-induced CD27 signaling; conditions: Silence et al. (2014); cited from earlier work
[9] = tested on: CD70-expressing tumor cells; conditions: cited from earlier work
[10] = tested on: LSCs from VEN+AZA resistant monocytic AML bone marrow samples; assay: Colony forming unit (CFU) assay after incubation with antibody and NK cells; format: cell-based, human; conditions: 10 μg/ml antibody, NK cells 1:5 T:E, 24-hour incubation, then 14 days in methocult medium
Procedure: FIG. 9 is a bar graph showing the effect of antibody treatment on leukemic stem cells from CD70 positive VEN+AZA resistant monocytic AML bone marrow samples. Data is normalized to the no antibody control colony forming units (CFU) for isotype control, blocking anti-CD70 antibody 41D12 FcDead and cusatuzumab. VEN+AZA resistant monocytic AML bone marrow samples were incubated with NK cells (1:5 T:E ratio) in the presence of antibodies (10 μg/ml) and then cultured in CFU medium in order to determine if LSCs were also efficiently targeted by cusatuzumab-mediated NK-dependent ADCC. […] One-way ANOVA test was used to determine significance. ****p<0.0001.
In order to test if CD70 positive LSCs from VEN+AZA resistant monocytic AML bone marrow samples could be targeted by cusatuzumab, bone marrow samples coming from VEN+AZA resistant samples were first incubated with cusatuzumab (10 μg/ml) and NK cells isolated from PBMCs from healthy donor (1:5 T:E ratio). After a 24-hour incubation samples were moved to methocult medium and further cultured in order to check if LSCs were targeted by cusatuzumab-mediated ADCC. No treatment, human IgG1 isotype control and blocking 41D12 FcDead antibody were used as negative controls. Cells were incubated in cell culture incubator at 37° C. for 14 days and colony forming units (CFU) were estimated by counting growing colonies.

Row | Molecule | aqueous solubility [1] | resistance of ROS-low LSCs from monocytic AML [2] | venetoclax sensitivity [3] | NK cell-dependent ADCC of monocytic cells ([4]; VEN+AZA resistant monocytic AML bone marrow sample, NK cells 1:5 T:E) | NK cell-dependent ADCC of monocytic cells ([4]; VEN+AZA resistant monocytic AML bone marrow sample, NK cells 1:5 T:E, listed as Cusatuzumab) | NK cell-dependent ADCC of monocytic cells ([4]; mixed phenotype AML bone marrow sample, NK cells 1:15 T:E) | NK cell-dependent ADCC of monocytic cells ([4]; mixed phenotype AML bone marrow sample, NK cells 1:15 T:E, listed as Cusatuzumab) | malignant human CD45+CD11b+CD117− cells in mouse bone marrow ([5]; in the absence of human NK cells) | malignant human CD45+CD11b+CD117− cells in mouse bone marrow ([5]; in the presence of human NK cells (1.5×10^6)) | leukemic stem cells (LSCs) in AML patients [6] | interaction of CD70 with its receptor CD27 [7] | CD70-induced CD27 signaling [8] | antibody dependent cellular phagocytosis (ADCP) of CD70-expressing cells ([9]; Silence et al. (2014)) | lysis of CD70-expressing tumor cells via antibody dependent cell-mediated cytotoxicity (ADCC) [9] | lysis of CD70-expressing tumor cells via complement dependent cytotoxicity (CDC) [9] | number of growing colonies (CFU) versus no treatment control [10]
1 | CC1(C)CCC(CN2CCN(c3ccc(C(=O)NS(=O)(=O)c4ccc(NCC5CCOCC5)c([N+](=O)[O-])c4)c(Oc4cnc5[nH]ccc5c4)c3)CC2)=C(c2ccc(Cl)cc2)C1 [venetoclax, 4-(4-{[2-(4-chlorophenyl)-4,4dimethylcyclohex-1-en-1-yl]methyl}piperazin-1-yl)-N-({3-nitro-4-[(tetrahydro-2H-pyran-4ylmethyl)amino]phenyl}sulfonyl)-2-(1H-pyrrolo[2,3-b]pyridin-5-yloxy)benzamide] | very low | increased resistance | decreased |  |  |  |  |  |  |  |  |  |  |  |  | 
2 | B1 |  |  |  | significantly targeted | significantly mediate NK-dependent cell killing | significantly targeted | significantly mediate NK-dependent cell killing | no significant effect | significant reduction; also recorded: significantly reduced levels of monocytic AML cells | efficiently reduced | inhibit the interaction of CD70 with its receptor CD27 | inhibit CD70-induced CD27 signaling | increase antibody dependent cellular phagocytosis (ADCP) | lyse CD70-expressing tumor cells | lyse CD70-expressing tumor cells | clear drop in the number of growing colonies; also recorded: significantly reduce the number of LSCs
